Numbering of substitutions follows the chain as printed. Where two headings read alike, the source gives them in different places.
Key:
[1] = biological target: T1, human IGF-1R, native, on MCF-7 cells or on hIGF-1R transfected cells (human, UniProt P08069 31-1367); assay: cell-based or functional assay
[2] = biological target: T1, human IGF-1R, native, on MCF-7 cells or …; assay: cell-based or functional assay; remark: listed apart in the source
[3] = biological target: T1, human IGF-1R, native, on MCF-7 cells or …; assay: cell-based or functional assay; remark: listed apart in the source
[4] = biological target: T2, human Axl receptor on human tumor cells (SN12C and other lines) (human, UniProt P30530 26-894); assay: FACS titration on MDA-MB-231 cells, anti-mouse Alexa 488
T2 construct: also called membrane Axl receptor; cell-surface Axl
Description: (§1) After 3 washes in phosphate-buffered saline (PBS) supplemented with 1% BSA and 0.01% NaN₃, cells were incubated with secondary antibody Goat anti-mouse Alexa 488 (1/500° dilution) for 20 minutes at 4° C. After 3 additional washes in PBS supplemented with 1% BSA and 0.1% NaN₃, cells were analyzed by FACS (Facscalibur, Becton-Dickinson). At least 5000 cells were assessed to calculate the mean value of fluorescence intensity.

[5] = biological target: T3, rhDtk-Fc (R and D Systems, cat No 859-DK) (human, UniProt Q06418 41-428, limits assumed); assay: ELISA on coated rhDtk-Fc, anti-mouse IgG-HRP, TMB
T3 construct: Bought
T3 sequence (looked up): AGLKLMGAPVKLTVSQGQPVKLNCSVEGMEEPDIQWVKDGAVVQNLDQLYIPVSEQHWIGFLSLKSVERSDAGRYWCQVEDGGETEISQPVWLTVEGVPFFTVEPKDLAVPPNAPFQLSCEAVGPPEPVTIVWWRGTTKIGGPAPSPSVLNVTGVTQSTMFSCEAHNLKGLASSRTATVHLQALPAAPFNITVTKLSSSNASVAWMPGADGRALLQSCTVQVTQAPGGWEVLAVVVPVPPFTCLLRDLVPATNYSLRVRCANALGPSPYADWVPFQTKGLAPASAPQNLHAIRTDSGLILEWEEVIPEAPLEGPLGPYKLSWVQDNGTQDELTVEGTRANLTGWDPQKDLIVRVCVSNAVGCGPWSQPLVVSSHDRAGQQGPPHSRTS
Description: (§2) Then 1/2 serial dilutions were done over 12 columns. Plates were washed and a goat anti-mouse (Jackson) specific IgG-HRP was added for 1 h at 37° C. Reaction development was performed using the TMB substrate solution. […] Coating controls were performed in presence of a goat anti-human IgG Fc polyclonal serum labelled with HRP (Jackson, ref 109-035-098) and/or in presence of a HRP-coupled anti-Histidine antibody (R and D Systems, ref: MAB050H).

[6] = biological target: T2, human Axl receptor on human tumor cells …; assay: FACS titration on SN12C cells, anti-mouse Alexa 488
Description: as §1

[7] = biological target: T4, rhAxl-Fc protein (R and D Systems, cat No 154-AL) (human, UniProt P30530 26-451); assay: ELISA on coated rhAxl-Fc, anti-mouse IgG-HRP, TMB
T4 construct: Bought; also called recombinant human Axl-Fc
Description: as §2

[8] = biological target: T5, rhMer-Fc (R and D Systems, cat No 891-MR) (human, UniProt Q12866 26-499, limits assumed); assay: ELISA on coated rhMer-Fc, anti-mouse IgG-HRP, TMB
T5 construct: Bought
T5 sequence (looked up): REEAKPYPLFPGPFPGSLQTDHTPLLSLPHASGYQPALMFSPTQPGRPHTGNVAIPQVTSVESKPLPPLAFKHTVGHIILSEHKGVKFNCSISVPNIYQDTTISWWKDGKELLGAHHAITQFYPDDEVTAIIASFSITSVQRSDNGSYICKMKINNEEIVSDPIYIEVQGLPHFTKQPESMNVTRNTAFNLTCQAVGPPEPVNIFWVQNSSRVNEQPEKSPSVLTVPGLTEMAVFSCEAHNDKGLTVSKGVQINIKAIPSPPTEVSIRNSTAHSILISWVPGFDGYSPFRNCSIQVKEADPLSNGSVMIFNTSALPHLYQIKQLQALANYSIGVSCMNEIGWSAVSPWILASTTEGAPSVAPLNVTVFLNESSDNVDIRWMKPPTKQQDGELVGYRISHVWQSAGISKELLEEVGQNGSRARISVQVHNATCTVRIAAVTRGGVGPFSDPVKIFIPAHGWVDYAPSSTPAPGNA
Description: as §2

T2 sequence (P30530 26-894 D266N limits assumed): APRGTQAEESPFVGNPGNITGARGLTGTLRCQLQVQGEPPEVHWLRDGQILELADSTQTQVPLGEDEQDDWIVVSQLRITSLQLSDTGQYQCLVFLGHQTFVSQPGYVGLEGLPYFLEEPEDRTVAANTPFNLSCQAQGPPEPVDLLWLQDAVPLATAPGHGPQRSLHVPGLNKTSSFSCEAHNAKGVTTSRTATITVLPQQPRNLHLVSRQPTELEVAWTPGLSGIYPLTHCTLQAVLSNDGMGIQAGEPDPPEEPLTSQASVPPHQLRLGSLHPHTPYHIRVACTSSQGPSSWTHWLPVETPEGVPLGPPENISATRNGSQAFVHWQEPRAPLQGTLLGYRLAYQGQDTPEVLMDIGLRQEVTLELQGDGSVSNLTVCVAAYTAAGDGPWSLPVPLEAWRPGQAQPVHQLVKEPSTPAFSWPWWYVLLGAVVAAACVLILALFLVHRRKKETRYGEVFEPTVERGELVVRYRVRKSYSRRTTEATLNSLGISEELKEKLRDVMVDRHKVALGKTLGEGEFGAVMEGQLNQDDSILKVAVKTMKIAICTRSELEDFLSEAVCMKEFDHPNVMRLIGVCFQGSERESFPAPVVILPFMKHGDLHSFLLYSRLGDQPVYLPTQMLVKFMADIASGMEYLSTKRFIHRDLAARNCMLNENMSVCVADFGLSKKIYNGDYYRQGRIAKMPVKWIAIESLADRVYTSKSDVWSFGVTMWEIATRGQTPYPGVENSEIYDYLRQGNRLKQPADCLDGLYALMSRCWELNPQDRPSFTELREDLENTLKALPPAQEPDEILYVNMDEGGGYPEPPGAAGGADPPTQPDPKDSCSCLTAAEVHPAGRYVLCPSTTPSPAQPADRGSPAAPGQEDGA
T4 sequence (P30530 26-451 D266N): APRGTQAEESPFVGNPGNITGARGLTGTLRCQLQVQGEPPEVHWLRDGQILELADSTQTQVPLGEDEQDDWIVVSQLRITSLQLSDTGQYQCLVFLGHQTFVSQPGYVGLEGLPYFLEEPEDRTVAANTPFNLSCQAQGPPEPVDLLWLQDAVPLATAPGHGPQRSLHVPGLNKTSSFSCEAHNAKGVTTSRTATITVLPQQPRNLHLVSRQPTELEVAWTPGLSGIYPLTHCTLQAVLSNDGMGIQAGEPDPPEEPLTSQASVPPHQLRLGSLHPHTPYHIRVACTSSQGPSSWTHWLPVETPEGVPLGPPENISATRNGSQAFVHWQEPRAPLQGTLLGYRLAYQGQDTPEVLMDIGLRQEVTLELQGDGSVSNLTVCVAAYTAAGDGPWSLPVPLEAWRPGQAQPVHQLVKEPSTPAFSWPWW

B1: c212A11 (antibody, human IgG1, kappa, V domains shown)
VH: QVQLQQSGPELVKPGASVKMSCKASGYTFTSYYIHWVKQRPGQGLEWIGWIWPGDGSTKYNEKFKGKTTLTADKSSSTAYMFLSSLTSEDSAVYFCASPMITPNYAMDYWGQGASVTVSS
VL: DIQMTQTTSSLSASLGDRVTISCRASQDINKYLNWYQQQPDGTVKLLIYYTSRLHSGVPSRFSGRGSGTDYSLTISNLEQEDIATYFCQQGSTLPYTFGGGTKLEIKR
- phosphorylation of hIGF-1R as % of phosphorylation induced by IGF-1 (MCF-7, 10 µg/ml Ab) [1]: < 10%
- ΔMFI (MCF-7, 4°C minus 37°C, 4 h) [2]: 322 MFI

B2: c208F2 (antibody, human IgG1, kappa, V domains shown)
VH: B1 VH with H35Y, I48L, G66D, S77N
VL: B1 VL with N30S, V44I, L78V
- phosphorylation of hIGF-1R as % of phosphorylation induced by IGF-1 (MCF-7, 10 µg/ml Ab) [1]: < 10%
- ΔMFI (MCF-7, 4°C minus 37°C, 4 h) [2]: 288 MFI
- % internalization (MCF-7, 10 µg/ml) [3]: 82%
- ΔMFI (MCF-7, 4°C minus 37°C, 4 h) [3]: 278 MFI

B3: c213B10 (antibody, human IgG1, kappa)
heavy: not shown
light: DIQMTQTTSSLSASLGDRVTISCRASQDISKYLNWYQQQPDGTIKLLIYYTSRLHSGVPSRFSGRGSGTDYSLTITNLEQEDIATYFCQQGSALPYTFGGGTKLEIKRTVAAPSVFIFPPSDEQLKSGTASVVCLLNNFYPREAKVQWKVDNALQSGNSQESVTEQDSKDSTYSLSSTLTLSKADYEKHKVYACEVTHQGLSSPVTKSFNRGEC
- phosphorylation of hIGF-1R as % of phosphorylation induced by IGF-1 (MCF-7, 10 µg/ml Ab) [1]: < 10%
- ΔMFI (MCF-7, 4°C minus 37°C, 4 h) [2]: 369 MFI

B4: c214F8 (antibody, human IgG1, kappa)
heavy: not shown
light: B3 light with I21F
- phosphorylation of hIGF-1R as % of phosphorylation induced by IGF-1 (MCF-7, 10 µg/ml Ab) [1]: < 10%
- ΔMFI (MCF-7, 4°C minus 37°C, 4 h) [2]: 403 MFI

B5: c219D6 (antibody, human IgG1, kappa, V domains shown)
VH: B1 VH with A16D, T28S, Y33F, A72T, S84N
VL: B1 VL with N30S
- phosphorylation of hIGF-1R as % of phosphorylation induced by IGF-1 (MCF-7, 10 µg/ml Ab) [1]: < 10%
- ΔMFI (MCF-7, 4°C minus 37°C, 4 h) [2]: 353 MFI

B6: m212A11 (antibody, V domains shown)
VH: B1 VH
VL: DIQMTQTTSSLSASLGDRVTISCRASQDINKYLNWYQQQPDGTVKLLIYYTSRLHSGVPSRFSGRGSGTDYSLTISNLEQEDIATYFCQQGSTLPYTFGGGTKLEIK
- inhibition of hIGF-1R phosphorylation in response to IGF-1 (MCF-7) [1]: > 80%

B7: m208F2 (antibody, V domains shown)
VH: B1 VH with H35Y, I48L, G66D, S77N
VL: B6 VL with N30S, V44I, L78V
- inhibition of hIGF-1R phosphorylation in response to IGF-1 (MCF-7) [1]: > 80%
- % internalization (MCF-7, 10 µg/ml) [3]: 88%
- ΔMFI (MCF-7, 4°C minus 37°C, 4 h) [3]: 294 MFI

B8: m213B10 (antibody, V domains shown)
VH: B1 VH with P9S, K63R
VL: B6 VL with N30S, V44I, S76T, T93A
- inhibition of hIGF-1R phosphorylation in response to IGF-1 (MCF-7) [1]: > 80%

B9: m214F8 (antibody, V domains shown)
VH: B1 VH with P9S, M20L, K63R
VL: B6 VL with I21F, N30S, V44I, S76T, T93A
- inhibition of hIGF-1R phosphorylation in response to IGF-1 (MCF-7) [1]: > 80%

B10: m219D6 (antibody, V domains shown)
VH: B1 VH with A16D, T28S, Y33F, A72T, S84N
VL: B6 VL with N30S
- inhibition of hIGF-1R phosphorylation in response to IGF-1 (MCF-7) [1]: > 80%

B11: hz208F2 VH3/VL3 (antibody, human IgG1, kappa, V domains shown)
VH: QVQLVQSGAEVKKPGASVKMSCKASGYTFTSYYIYWVKQAPGQGLEWLGWIWPGDGSTKYNEKFQGRVTLTADKSSNTAYMFLSSLRSEDTAVYFCASPMITPNYAMDYWGQGTLVTVSS
VL: DIQMTQSPSSLSASVGDRVTISCRASQDISKYLNWYQQKPGKAPKLLIYYTSRLHSGVPSRFSGRGSGTDYSLTISNLQPEDFATYFCQQGSTLPYTFGGGTKVEIKR
- % internalization (MCF-7, 10 µg/ml) [3]: 87%
- ΔMFI (MCF-7, 4°C minus 37°C, 4 h) [3]: 344 MFI

B12: m1613F12 (antibody, V domains shown)
VH: EVHLQQSGAELVKPGASVKLSCTASGFNIRDTYIHWVKQRPEQGLEWIGRLDPANGHTKYGPNFQGRATMTSDTSSNTAYLQLSSLTSEDTAVYYCARGAYYYGSSGLFYFDYWGQGTTLSVSS
VL: DVQITQSPSYLATSPGETITINCRASKSISKYLAWYQEKPGKTNKLLIYSGSTLQSGVPSRFSGSGSGTDFTLTISSLEPEDFAMYFCQQHHEYPLTFGAGTELELK
notes: Murine monoclonal antibody, detected with anti-mouse IgG; also called murine 1613F12; hybridoma I-4505
- EC50 (read off the curve) [4]: ~1 nM
- binding result [5]: no binding (tested: log (M) -7.5 (about 3e-8 M))
- EC50 (read off the curve) [6]: ~0.9 nM
- EC50 (read off the curve) [7]: ~1 nM
- binding result [8]: no binding (tested: log (M) -7.5 (about 3e-8 M))

Source: patent publication US20190269788A1 (PIERRE FABRE MEDICAMENT, published 2019)
